Patent publication US20030008857A1, “Photodynamic therapy (PDT) in combination with factors that bind cell surface apoptosis-inducing receptors” (priority 1999, published 2003)
“Also recorded” adds a separate entry of the source.

Columns and labels:
Type in all cases: cell-based, human
IETDase (caspase 8) = assay: Protease assay of cell extracts with Ac-IETD-AMC; conditions: FasL 7.5 ng/ml, 3 hours, Jurkat whole cell extracts
Experimental: (§1) The human Jurkat T cell line containing a neomycin resistance gene was obtained from Dr. Charles Rudin (University of Chicago). Cells were maintained in RPMI 1640 medium containing 10% heat-inactivated fetal calf serum (FCS) with penicillin (100 U/mL), streptomycin (100 μg/mL), 20 mM HEPES, 2 mM L-glutamine and G418 (1 μg/ml) purchased from Gibco BRL (Burlington, Ontario) in a CO2 incubator at 37° C. To elicit apoptosis with PDT, Jurkat cells were incubated with different amounts of liposomally formulated benzoporphyrin derivative monoacid ring A (BPD-MA, verteporfin, QLT PhotoTherapeutics, Inc., Vancouver, Canada) for one hour at 37° C. under light-protected conditions. The culture medium used for experiments was identical to that used for the passage of the cells except that FCS was used at a concentration of 5%. Experiments were conducted either in 6-well culture plates at 5×10^6 cells in a volume of 4 ml per well or in 96-well microtiter plates at 1×10^5 cells per well at 0.2 ml per well. […]
(§2) These sequences are denoted by letter codes for each amino acid. […] The reaction mixture was incubated at 37° C. for 1 (DEVD.AMC) or 24 (VEID.AMC and IETH.AMC) h and fluorescence was measured using an excitation at 380 nm and an emission wavelength of 460 nm with a CytoFluor™ 2350 fluorescent measuring system (Perseptive Biosystems, Burlington, Ont).

caspase-3, -6 and -8 = assay: Caspase cleavage activity of cell extracts, statements covering DEVD, VEID and IETD peptides together
Experimental: (§3) The human Jurkat T cell line containing a neomycin resistance gene was obtained from Dr. Charles Rudin (University of Chicago). Cells were maintained in RPMI 1640 medium containing 10% heat-inactivated fetal calf serum (FCS) with penicillin (100 U/mL), streptomycin (100 μg/mL), 20 mM HEPES, 2 mM L-glutamine and G418 (1 μg/ml) purchased from Gibco BRL (Burlington, Ontario) in a CO2 incubator at 37° C. To elicit apoptosis with PDT, Jurkat cells were incubated with different amounts of liposomally formulated benzoporphyrin derivative monoacid ring A (BPD-MA, verteporfin, QLT PhotoTherapeutics, Inc., Vancouver, Canada) for one hour at 37° C. under light-protected conditions. The culture medium used for experiments was identical to that used for the passage of the cells except that FCS was used at a concentration of 5%. Experiments were conducted either in 6-well culture plates at 5×10^6 cells in a volume of 4 ml per well or in 96-well microtiter plates at 1×10^5 cells per well at 0.2 ml per well. Cells were irradiated with light of a wavelength of 690 nm delivered at 65-73 mW/sec from light emitting diodes (LED) to achieve a total light dose of 5 J/cm^2. Cells were returned to the incubator until required for analysis.
(§4) FasL and TRAIL as used were recombinant preparations. FasL was obtained from Upstate Biotechnology (Lake Placid NY) and corresponded to amino acids 103-281 of the soluble domain of human FasL. TRAIL was obtained from BIOMOL Research Laboratories (Plymouth Meeting, Pa.) and corresponded to residues 114-281 of the soluble domain of human TRAIL. FasL and TRAIL were usually added immediately following the treatment of cells with PDT, although in one series of experiments these factors were added at 1, 2 or 3 hours post-irradiation.
Whole cell lysates were prepared by washing 1×10^7 cells per sample twice with ice-cold PBS. Cells were disrupted with 1 mL of lysis buffer [1% Nonidet P-40 detergent (NP-40), 20 mM Tris-HCl, pH 8.0, 137 mM NaCl, 10% glycerol, 1 mM phenylmethylsulfonyl fluoride (PMSF) aprotinln (0.15 U/mL) and 1 mM sodium orthovanadate] for 20 minutes on ice. Lysates were centrifuged for 10 minutes at 15,800×g at 4° C.
These sequences are denoted by letter codes for each amino acid. To evaluate relative DEVDase (caspases 3 and 7), VEIDase (caspase 6) and IETDase (caspase 8) cleavage activity, Jurkat cell lysates were incubated with caspase-specific fluorescent substrates as described by Granville et al. (“Photodynamic therapy induces caspase-3 activation in HL-60 cells”, Cell Death Differ., 4, 623-629 (1997)). Briefly, lysates were incubated with reaction buffer (20 mM Tris pH 7.5, 137 mM NaCl, 1% NP-40, 10% glycerol) containing 100 μM of the caspase substrates Ac-DEVD-AMC (Calbiochem, Cambridge, Mass.), Ac-VEID-AMC (Calbiochem, Cambridge, Mass.), Ac-lETD-AMC (BIOMOL, Plymouth Meeting Pa.), and Ac-LEHD-AMC (Calbiochem, Cambridge, Mass.). The letter codes for the amino acid residues present within the inhibitor peptides are as following: D=aspartic acid; E=glutamic acid; H=histidine; I=isoleucine; T=threonine; V=valine. The reaction mixture was incubated at 37° C. for 1 (DEVD.AMC) or 24 (VEID.AMC and IETH.AMC) h and fluorescence was measured using an excitation at 380 nm and an emission wavelength of 460 nm with a CytoFluor™ 2350 fluorescent measuring system (Perseptive Biosystems, Burlington, Ont).

Jurkat T cells = assay: DNA fragmentation (sub-diploid DNA) by PI staining and flow cytometry
Experimental: as §3, §4
The proportion of cells containing sub-diploid levels of DNA 24 hours following treatment was determined using a propidium iodide (“PI”) fluorescence analysis procedure as described by Telford et al. (“Rapid Quantitation of Apoptosis in Pure and Heterogeneous Cell Populations Using Flow Cytometry” J. Immunol Methods 172:1-6 (1994)) or by Darzynkieicz et al. (“Features of Apoptotic Cells Measured by Flow Cytometry”, Cytometry, 13:795-808 (1992)).
Twenty four hours following PDT, 5×10^5 cells were washed twice with ice-cold PBS and then permeablized and fixed in 80% ethanol at 4° C. for one hour. The cells were again washed in ice-cold PBS and stained with PI (50 μg/mL) in PBS with simultaneous deoxyribose nuclease-free ribonuclease A (5 U/mL) treatment. These samples were analyzed by flow cytometry. The percentage of apoptotic cells was calculated using single color analysis for PI fluorescence with a Coulter XL flow cytometer (Coulter Electronics, Inc., Hialeah, Fla.). […] The degree of separation between the apoptotic population and the G0/G1 peak is readily apparent and the percentage of apoptotic cells is determined from the subsequent histogram.

[1] = tested on: DEVDase (caspases 3 and 7); assay: Protease assay of cell extracts with Ac-DEVD-AMC; conditions: FasL 7.5 ng/ml, 3 hours, Jurkat whole cell extracts
Experimental: as §1, §2

[2] = tested on: caspase-3, -6, -8 and -9 and PARP; assay: Western immunoblot of caspase processing and PARP cleavage in Jurkat cells; conditions: 3 hours
Experimental: as §3
(§5) FasL and TRAIL as used were recombinant preparations. […]

VEIDase (caspase 6) = assay: Protease assay of cell extracts with Ac-VEID-AMC; conditions: FasL 7.5 ng/ml, 3 hours, Jurkat whole cell extracts
Experimental: as §1, §2

cytochrome c = assay: Cytochrome c in cytosolic extracts of Jurkat cells (immunoblot); conditions: 3 hours
Experimental: as §3, §5

[3] = FasL 7.5 ng/ml or TRAIL 20 ng/ml

B1: FasL: recombinant, amino acids 103-281 of the soluble domain of human FasL (Upstate Biotechnology) (protein, UniProt P48023 103-281, looked up, fragment)
chain: QLFHLQKELAELRESTSQMHTASSLEKQIGHPSPPPEKKELRKVAHLTGKSNSRSMPLEWEDTYGIVLLSGVKYKKGGLVINETGLYFVYSKVYFRGQSCNNLPLSHKVYMRNSKYPQDLVMMEGKMMSYCTTGQMWARSSYLGAVFNLTSADHLYVNVSELSLVNFEESQTFFGLYKL
For B1, the “increase in IETDase-like activity versus control cells” value (IETDase (caspase 8)) was “one-and-half fold”, the “caspase activity compared with the treatments given independently” value (caspase-3, -6 and -8; FIG. 7: factor combined with PDT (verteporfin 5 ng/ml, 5 J/cm^2), 3 hours) was “higher caspase activity” and the “protease activity on DEVD, VEID and IETD peptides, single treatment” value (caspase-3, -6 and -8; FIG. 7: verteporfin 5 ng/ml with light, FasL 7.5 ng/ml or TRAIL 20 ng/ml alone, 3 hours) was “modestly increased”. The “nature of the combined effect on caspase cleavage activity” value (caspase-3, -6 and -8; FasL 7.5 ng/ml plus PDT at verteporfin 5 ng/ml) was “greater than additive effect”, the “caspase cleavage activity levels relative to PDT or FasL applied independently” value (caspase-3, -6 and -8; FasL 7.5 ng/ml plus PDT at verteporfin 5 ng/ml, 3 hours) was 2-5 fold and the “protease activity compared with FasL or TRAIL alone” value (caspase-3, -6 and -8; factor plus verteporfin in the absence of light irradiation) was “no different”. For the same molecule, the “increase in proportion of cells with sub-diploid DNA versus light-treated control cells” value (Jurkat T cells; FasL 7.5 ng/ml added after PDT with verteporfin 2 ng/ml, 5 J/cm^2, 24 hours) was “twelve-fold”, the “increase in the number of cells displaying DNA fragmentation” value (Jurkat T cells; FasL 7.5 ng/ml by itself, 24 hours (FIG. 2)) was “seven-fold” and the “cells with induced DNA fragmentation” value (Jurkat T cells; FasL 200 ng/ml, within 24 hours) was “approximately 60%”. For the same molecule, the “proportion of cells with sub-diploid DNA compared with PDT alone” value (Jurkat T cells; TRAIL 20 ng/ml or FasL 7.5 ng/ml added after PDT with verteporfin 0.5 and 1 ng/ml) was “a greater proportion of cells contained a sub-diploid level of DNA”, the “DNA fragmentation induced by the factor without PDT across addition times” value (Jurkat T cells; added at 5 minutes, 1, 2 or 3 hours, FasL 7.5 ng/ml, TRAIL 20 ng/ml, individually or in combination) was “a comparable level of DNA fragmentation” and the “change of the combined effect with PDT on DNA fragmentation” value (Jurkat T cells; factor added at 3 hours post-PDT (verteporfin 2 ng/ml)) was “a modest decline”. For the same molecule, the “capacity to accentuate PDT-mediated apoptosis (DNA fragmentation)” value (Jurkat T cells; factor added up to 3 hours after PDT (verteporfin 2 ng/ml), FasL 7.5 ng/ml, TRAIL 20 ng/ml) was “still demonstrable”, the “increase in DEVDase-like cleavage activity versus control cells” value [1] was “approximately two-fold” and the “caspase processing and PARP degradation compared with PDT or the factor alone” value ([2]; FasL 7.5 ng/ml or TRAIL 20 ng/ml combined with verteporfin PDT) was “more extensive caspase processing and PARP degradation; also recorded: a higher degree of processing”. The “processing of caspases and PARP by the factor alone” value [2, 3] was “little or no processing; also recorded: little detectable processing”, the “increase in VEIDase-like cleavage activity versus control cells” value (VEIDase (caspase 6)) was “approximately two-fold” and the “cytochrome c in cytosolic extracts, factor alone” value (cytochrome c; [3]) was “background levels of cytochrome c”. For the same molecule, the “cytochrome c in cytosolic extracts, factor with PDT” value (cytochrome c; PDT in combination with TRAIL 20 ng/ml or FasL 7.5 ng/ml) was “readily detectable amounts of cytochrome c”.
